± gives the uncertainty stated by the source.
B1: Gamma-crystallin C, residues 4 to 79; numbered along this chain, P07315 (parent)
chain: ITFYEDRAFQGRSYETTTDCPNLQPYFSRCNSIRVESGCWMLYERPNYQGQQYLLRRGEYPDYQQWMGLSDSIRSC

Variants of: B1
Test: abundance fitness (aPCA) (normalised: wild type 0, dead -1); higher = more abundant; growth selection in yeast, the domain comes from the species named
Conditions: Homo sapiens

Variant | abundance fitness
ITFYEDRAFQGRSYETTTDCPNLQPYFSRCNSIDVESGCWMLYERPNYQGQQYLLRRGEYPDYQQWMGLSDSIRSC [R34D] | -0.382 ± 0.27
ITFYEDRAFQGRSYETTTDCPNLQPYFSRCNSIMVESGCWMLYERPNYQGQQYLLRRGEYPDYQQWMGLSDSIRSC [R34M] | -0.153 ± 0.1
ITFYEDRAFQGRSYETTTDCPNLQPYFSRCNSIRVESGCWMLYERPNYQGQQYLLRRGEYPDYQQWMGLMDSIRSC [S70M] | -0.132 ± 0.097
ITFYEDRAFQGRSYETTTDCPNLQPYFSRCNSIRVESGCWMLYERPNYQGQQYLLRRGEYPDYQQWMGLHDSIRSC [S70H] | -0.181 ± 0.15
ITFYEDRAFQGRSYETTTDCPNLQPYFSRCNSIRVESGCWMLYERPWYQGQQYLLRRGEYPDYQQWMGLSDSIRSC [N47W] | -0.086 ± 0.11
ITFYEDRAFQGRSYETTTDCPNLQPYFSRCNSIRVESGCWMLAERPNYQGQQYLLRRGEYPDYQQWMGLSDSIRSC [Y43A] | -0.156 ± 0.079
ITFYEDRAFQGRSYETTTDCPNLQPYFSRCNSIRVESGCWMLYERPNYQGTQYLLRRGEYPDYQQWMGLSDSIRSC [Q51T] | -0.159 ± 0.12
ITFWEDRAFQGRSYETTTDCPNLQPYFSRCNSIRVESGCWMLYERPNYQGQQYLLRRGEYPDYQQWMGLSDSIRSC [Y4W] | -0.094 ± 0.13
ITFYEDRAFQGRSYETTTDCPNLQPYFSRCNSIRVECGCWMLYERPNYQGQQYLLRRGEYPDYQQWMGLSDSIRSC [S37C] | -0.091 ± 0.14
ITFYEDRAFQGRSYETTTDCPNLQPYFSRCNSIRVESGCWMMYERPNYQGQQYLLRRGEYPDYQQWMGLSDSIRSC [L42M] | 0.045 ± 0.25
ITFYMDRAFQGRSYETTTDCPNLQPYFSRCNSIRVESGCWMLYERPNYQGQQYLLRRGEYPDYQQWMGLSDSIRSC [E5M] | 0.097 ± 0.12
ITFYEDRAFQGRSYETTTDCPNLQPYFSRCNSIRVESGCWMLYERPNYQGQQYLLRRGEYPDYQQWMGLSDSDRSC [I73D] | -0.861 ± 0.23
ITFYEDRAFQGRSYETTTDCPNLQPYFSRCNSIRVESGCWMLYERPNYQGQQYLLRRGEYPDYQQWMGLSDSCRSC [I73C] | 0.047 ± 0.091
ITFYEDRAFQGRSYETTTDCPNLQPYFSRCNSIRVESGCWMLYERPNYQGQQYLLRRGEYPDYQQWMGLSDSTRSC [I73T] | 0.053 ± 0.1
ITFYEDRAFQGRSYETTTDCPNLQPYFSRCNSIRVESGCWMLYERPNYQGQQYLLRRGEYPDYQQWMGLSDSKRSC [I73K] | -0.801 ± 0.25
ITFYEDRAFQGRSYETTTDCPNLQPYFSRCNSIRVESGCWMLYERPNYQGQQYLLRRGEYPDYQQWMRLSDSIRSC [G68R] | 0.079 ± 0.043
ITFYEDRAFQGRSYETTTDCPNLQPYFSRCNSIRVESGCWMLYERPNYQGQQYLLRRGEYPDYQQWMQLSDSIRSC [G68Q] | -0.018 ± 0.083
ITFYEDRAFQGRSYETTTDCPNLQPYFSRCNSIRVESGCWMLYERPNYQGQQYLLRRGEYPDYQQWMSLSDSIRSC [G68S] | 0.014 ± 0.052

Variant | abundance fitness
ITFYEDRAFQGRSYETTTDCPNLQPYFSRCNSIRVESGCWMLYERPNYQGQQYLLRRGEYIDYQQWMGLSDSIRSC [P61I] | -0.129 ± 0.14
ITFYEDRAFQGRSYETTTDCPNLQPYFSRCNSIRVESGCWMLYERPNYQGQQYPLRRGEYPDYQQWMGLSDSIRSC [L54P] | -0.092 ± 0.13
ITFYEDRAFQGRSYETPTDCPNLQPYFSRCNSIRVESGCWMLYERPNYQGQQYLLRRGEYPDYQQWMGLSDSIRSC [T17P] | -0.01 ± 0.28
ITFYEDRAFQGRSYETWTDCPNLQPYFSRCNSIRVESGCWMLYERPNYQGQQYLLRRGEYPDYQQWMGLSDSIRSC [T17W] | -0.092 ± 0.18
ITFYEDRAFQGRSYETVTDCPNLQPYFSRCNSIRVESGCWMLYERPNYQGQQYLLRRGEYPDYQQWMGLSDSIRSC [T17V] | -0.006 ± 0.099
ITFYEDRAFQGRSYETTTDCPNLQPYFSRCNSIRVESGCWMLYERPNYQGQQYLLRRGEYPDYSQWMGLSDSIRSC [Q64S] | -0.188 ± 0.082
ITFYEDRAFQGRSYETTTDCPNSQPYFSRCNSIRVESGCWMLYERPNYQGQQYLLRRGEYPDYQQWMGLSDSIRSC [L23S] | -0.39 ± 0.12
ITFYEDRAFQGVSYETTTDCPNLQPYFSRCNSIRVESGCWMLYERPNYQGQQYLLRRGEYPDYQQWMGLSDSIRSC [R12V] | -0.039 ± 0.056
ITFYEDRAFQGRSYETTTDCPNLQPYFSRCNSIRVESGCWMLYERPNYQGQYYLLRRGEYPDYQQWMGLSDSIRSC [Q52Y] | -0.326 ± 0.47
ITFYEDRAFQGRSYETTTDCPNLQPYFSRCNSIRVESGCWMLYERPNYQGQHYLLRRGEYPDYQQWMGLSDSIRSC [Q52H] | 0.082 ± 0.45
ITFYEDRAFQGRSYETTTDCPNLQPYFSRCNSIRVESGCWMLYERPNYQGQFYLLRRGEYPDYQQWMGLSDSIRSC [Q52F] | 0.093 ± 0.23
ITFYEDRAFQGRSYETTKDCPNLQPYFSRCNSIRVESGCWMLYERPNYQGQQYLLRRGEYPDYQQWMGLSDSIRSC [T18K] | -0.065 ± 0.13
ITFYEDRAFQGRSYETTTDCPNLQPYESRCNSIRVESGCWMLYERPNYQGQQYLLRRGEYPDYQQWMGLSDSIRSC [F27E] | -0.794 ± 0.25
ITFYEDRAFQGRSYETTTDCPNLQPYYSRCNSIRVESGCWMLYERPNYQGQQYLLRRGEYPDYQQWMGLSDSIRSC [F27Y] | -0.468 ± 0.23
TTFYEDRAFQGRSYETTTDCPNLQPYFSRCNSIRVESGCWMLYERPNYQGQQYLLRRGEYPDYQQWMGLSDSIRSC [I1T] | -0.722 ± 0.3
ITFYEDRAFQGRSYETTTDCPNLQPYFSRCNSIRVESGCWMLYERPNYAGQQYLLRRGEYPDYQQWMGLSDSIRSC [Q49A] | -0.02 ± 0.085
ITFYEDRAFQGRSYETTTDTPNLQPYFSRCNSIRVESGCWMLYERPNYQGQQYLLRRGEYPDYQQWMGLSDSIRSC [C20T] | 0.019 ± 0.1
ITFYEDRAFQGRSYETTTDCPNLQPYFSRCNSIRVESGCWMLYERPNYQGQQYLARRGEYPDYQQWMGLSDSIRSC [L55A] | -0.368 ± 0.083
